Laboratory results published in patent publication US20060104974A1.

Tests used:
[1] = molecular target: Hu-CD147IgG2 fusion protein (human); test: BIAcore, surface Hu rCD147-IgG 791 RU
CD147 on cells (human) = CD147 on cells (human) (UniProt P35613); test: two-colour FACS of activated lymphocytes, CBL against CD25
CD147 on cells (human), sequence (P35613 other isoform, or with tags, fused parts or gaps limits assumed): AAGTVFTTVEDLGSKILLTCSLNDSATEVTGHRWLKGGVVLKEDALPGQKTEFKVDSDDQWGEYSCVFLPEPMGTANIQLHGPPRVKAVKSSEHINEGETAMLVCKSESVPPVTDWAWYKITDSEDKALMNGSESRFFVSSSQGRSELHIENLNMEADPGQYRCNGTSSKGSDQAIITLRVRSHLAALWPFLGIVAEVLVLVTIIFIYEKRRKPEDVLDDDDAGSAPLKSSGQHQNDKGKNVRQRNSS

ABX-CBL antibody, sequence (HC): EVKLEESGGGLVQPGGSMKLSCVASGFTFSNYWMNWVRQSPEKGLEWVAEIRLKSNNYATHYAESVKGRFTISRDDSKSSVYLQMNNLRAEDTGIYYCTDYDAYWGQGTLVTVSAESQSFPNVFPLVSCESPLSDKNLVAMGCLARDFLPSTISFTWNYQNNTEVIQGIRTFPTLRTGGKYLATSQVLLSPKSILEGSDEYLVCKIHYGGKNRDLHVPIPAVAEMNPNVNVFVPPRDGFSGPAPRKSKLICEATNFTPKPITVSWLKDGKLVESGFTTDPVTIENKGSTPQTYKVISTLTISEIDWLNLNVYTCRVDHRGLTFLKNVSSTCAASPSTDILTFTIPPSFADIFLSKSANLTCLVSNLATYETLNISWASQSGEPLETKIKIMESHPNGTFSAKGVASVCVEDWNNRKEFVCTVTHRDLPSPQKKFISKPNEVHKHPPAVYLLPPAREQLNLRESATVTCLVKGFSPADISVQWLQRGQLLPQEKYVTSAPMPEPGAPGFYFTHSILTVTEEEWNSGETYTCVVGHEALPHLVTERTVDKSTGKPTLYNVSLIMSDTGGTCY
ABX-CBL antibody, sequence (LC): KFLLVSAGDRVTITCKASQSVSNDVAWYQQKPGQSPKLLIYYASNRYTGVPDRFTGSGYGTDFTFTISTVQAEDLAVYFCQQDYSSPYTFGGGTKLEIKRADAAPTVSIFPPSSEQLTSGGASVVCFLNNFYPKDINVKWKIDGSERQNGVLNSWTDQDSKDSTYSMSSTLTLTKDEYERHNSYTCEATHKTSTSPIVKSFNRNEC

ABX-CBL antibody
Ka [1]: 1.39e+09 M⁻¹
Kd [1]: 0.518 nM
koff [1]: 0.000376 s⁻¹
kon [1]: 725000 M⁻¹ s⁻¹
% of cells in quadrant CBL negative / CD25 negative (CD147 on cells (human)): 29.6%
% of cells in quadrant CBL negative / CD25 positive (CD147 on cells (human)): 1.6%
% of cells in quadrant CBL positive / CD25 negative (CD147 on cells (human)): 18.9%
% of cells in quadrant CBL positive / CD25 positive (CD147 on cells (human)): 50%
